As usually defined, the Kd is the free concentration of one partner at which half of the binding sites on the other are occupied at equilibrium, for simple one-to-one binding.

T1: ScSmc2H-CC110;ScSmc4H-CC110 (Saccharomyces cerevisiae?;Saccharomyces …, UniProt P38989;Q12267 396-792;555-951, |)
T1 sequence 1: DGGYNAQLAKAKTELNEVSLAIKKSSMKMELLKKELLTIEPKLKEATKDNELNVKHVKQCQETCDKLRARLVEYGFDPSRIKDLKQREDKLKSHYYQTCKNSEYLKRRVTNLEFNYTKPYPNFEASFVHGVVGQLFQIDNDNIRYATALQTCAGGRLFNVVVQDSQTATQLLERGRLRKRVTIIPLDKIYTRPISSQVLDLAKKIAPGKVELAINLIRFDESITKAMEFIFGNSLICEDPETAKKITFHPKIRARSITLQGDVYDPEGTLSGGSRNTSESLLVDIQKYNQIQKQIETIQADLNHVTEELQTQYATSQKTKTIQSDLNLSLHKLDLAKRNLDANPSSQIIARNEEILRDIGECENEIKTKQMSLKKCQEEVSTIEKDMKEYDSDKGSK
T1 sequence 2: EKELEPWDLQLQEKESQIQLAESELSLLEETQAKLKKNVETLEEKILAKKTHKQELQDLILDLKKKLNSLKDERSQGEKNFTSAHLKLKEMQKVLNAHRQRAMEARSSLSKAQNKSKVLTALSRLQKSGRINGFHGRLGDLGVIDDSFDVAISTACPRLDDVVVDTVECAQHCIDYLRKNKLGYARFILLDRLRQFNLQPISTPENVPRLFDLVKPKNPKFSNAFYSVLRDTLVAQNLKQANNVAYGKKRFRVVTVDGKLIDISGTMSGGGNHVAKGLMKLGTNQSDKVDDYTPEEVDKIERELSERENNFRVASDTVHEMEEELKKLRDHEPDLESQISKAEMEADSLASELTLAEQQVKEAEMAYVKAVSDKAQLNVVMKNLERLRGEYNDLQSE

T2: Bs Smc (Bacillus subtilis, UniProt P51834 1-1186)
T2 sequence: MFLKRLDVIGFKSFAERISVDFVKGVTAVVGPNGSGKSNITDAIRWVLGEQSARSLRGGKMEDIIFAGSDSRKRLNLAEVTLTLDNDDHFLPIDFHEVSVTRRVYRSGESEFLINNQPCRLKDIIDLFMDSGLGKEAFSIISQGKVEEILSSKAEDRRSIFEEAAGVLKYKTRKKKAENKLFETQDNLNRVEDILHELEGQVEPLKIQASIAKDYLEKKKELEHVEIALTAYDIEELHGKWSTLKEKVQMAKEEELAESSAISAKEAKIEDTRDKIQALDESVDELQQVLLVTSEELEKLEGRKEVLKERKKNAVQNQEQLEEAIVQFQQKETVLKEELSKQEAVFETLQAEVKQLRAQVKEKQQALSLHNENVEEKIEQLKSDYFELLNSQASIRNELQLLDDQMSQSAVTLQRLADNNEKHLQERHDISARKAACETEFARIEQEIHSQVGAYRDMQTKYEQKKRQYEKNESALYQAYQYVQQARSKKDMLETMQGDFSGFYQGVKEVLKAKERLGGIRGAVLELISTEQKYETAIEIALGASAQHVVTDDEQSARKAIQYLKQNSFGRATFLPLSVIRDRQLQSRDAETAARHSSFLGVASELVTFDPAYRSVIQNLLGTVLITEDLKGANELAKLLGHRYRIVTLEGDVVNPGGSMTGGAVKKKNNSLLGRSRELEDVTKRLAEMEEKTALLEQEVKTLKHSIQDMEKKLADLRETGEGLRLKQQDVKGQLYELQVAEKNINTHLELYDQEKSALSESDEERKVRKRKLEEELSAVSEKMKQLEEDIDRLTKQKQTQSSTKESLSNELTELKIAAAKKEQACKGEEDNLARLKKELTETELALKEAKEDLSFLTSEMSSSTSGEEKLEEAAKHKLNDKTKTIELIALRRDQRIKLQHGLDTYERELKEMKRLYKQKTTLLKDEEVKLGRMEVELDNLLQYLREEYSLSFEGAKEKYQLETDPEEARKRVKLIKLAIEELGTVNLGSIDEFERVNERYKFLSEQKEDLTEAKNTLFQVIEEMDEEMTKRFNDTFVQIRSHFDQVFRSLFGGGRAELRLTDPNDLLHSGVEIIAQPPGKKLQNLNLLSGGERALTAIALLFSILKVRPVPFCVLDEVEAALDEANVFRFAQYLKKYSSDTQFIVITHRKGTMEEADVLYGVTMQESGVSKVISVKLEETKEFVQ

T3: BsSmcH-CC8 (Bacillus subtilis, UniProt P51834 489-680)
T3 sequence: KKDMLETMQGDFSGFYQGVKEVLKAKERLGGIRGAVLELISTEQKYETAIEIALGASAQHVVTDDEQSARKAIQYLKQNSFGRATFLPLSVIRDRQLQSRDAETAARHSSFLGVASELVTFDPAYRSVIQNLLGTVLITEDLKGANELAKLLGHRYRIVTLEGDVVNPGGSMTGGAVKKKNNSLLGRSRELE

T4: BsSmcH-CC100 (Bacillus subtilis, UniProt P51834 400-776)
T4 sequence: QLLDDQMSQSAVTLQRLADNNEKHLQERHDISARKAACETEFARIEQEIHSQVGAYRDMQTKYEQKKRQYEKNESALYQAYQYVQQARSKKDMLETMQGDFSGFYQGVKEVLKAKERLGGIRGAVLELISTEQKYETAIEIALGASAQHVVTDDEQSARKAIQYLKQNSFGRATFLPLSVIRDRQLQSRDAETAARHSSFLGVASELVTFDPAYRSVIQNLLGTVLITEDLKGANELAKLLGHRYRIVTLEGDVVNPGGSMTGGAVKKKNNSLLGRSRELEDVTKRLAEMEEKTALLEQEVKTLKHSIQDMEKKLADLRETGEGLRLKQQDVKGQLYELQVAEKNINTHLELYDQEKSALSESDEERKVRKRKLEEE

T5: BsSmcH (Bacillus subtilis, UniProt P51834 498-665)
T5 sequence: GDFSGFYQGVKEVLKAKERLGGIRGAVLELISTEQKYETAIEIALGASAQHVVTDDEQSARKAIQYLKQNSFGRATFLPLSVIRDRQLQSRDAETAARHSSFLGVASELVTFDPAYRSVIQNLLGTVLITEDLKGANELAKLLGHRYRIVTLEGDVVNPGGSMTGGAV

T6: Bacillus subtilis Smc protein (Bacillus subtilis, UniProt P51834 1-1186)
T6 sequence (looked up): T2 sequence

B1: ds40 (dsDNA)
DNA 1: TTAGTTGTTCGTAGTGCTCGTCTGGCTCTGGATTACCCGC
DNA 2: GCGGGTAATCCAGAGCCAGACGAGCACTACGAACAACTAA
B2: Bacillus subtilis ScpA (natural protein, UniProt P35154 1-251, looked up)
chain: MEEYQVKIDTFEGPLDLLLHLINRLEIDIYDIPVAKITEQYLLYVHTMRVLELDIASEYLVMAATLLSIKSRMLLPKQEEELFEDELLEEEDPREELIEKLIEYRKYKDAAKDLKEREEERQKSFTKPPSDLSEYAKEVKQSEQKLSVTVYDMIGAFQKVLKRKKINRPMETTITRQDIPIEARMNEIVHSLKSRGTRINFMDLFPYEQKEHLVVTFLAVLELMKNQLVLIEQEHNFSDIYITGSESIHGA
B3: Bacillus subtilis ScpB (natural protein, UniProt P35155 1-197, looked up)
chain: MGLDIVNWKAIVEALLYAAGDEGLTKKQLLTVLEIEEPELNTIMADVADEYRGDTRGIELIEYADTYMLSTKKDFAPYLKKLIEVPSKGLSQASLEVLAIVSYKQPITRAEIEEIRGVKSERILHSLVAKALLCEVGRADGPGRAILYGTTPTFLEQFGLKTLDELPPLPENAEEDVLQEEADLFFENFNQTFEDIK

Data set [1] addresses T1, ScSmc2H-CC110;ScSmc4H-CC110. The experiment in a line: fluorescence anisotropy. A general note: In fluorescence polarisation assays a small probe gives low polarisation when free and higher when bound to something large.
Data set [2] deals with T2, Bs Smc. The experiment in a line: fluorescence anisotropy.
Data set [3] has as its target T3, BsSmcH-CC8. As to the kind of experiment: fluorescence anisotropy.
The target of data set [4] is T4, BsSmcH-CC100. The experiment in a line: fluorescence anisotropy.
The target of data set [5] is T5, BsSmcH. As to the kind of experiment: fluorescence anisotropy.
Data set [6] addresses T6, Bacillus subtilis Smc protein. As to the kind of experiment: SEC-MALS.
Data set [7] concerns the molecule itself. As to the kind of experiment: SEC-MALS. On the technique in general: SEC sorts molecules by how far they enter the pores of the column.
Data set [8] deals with B2. The experiment in a line: SEC-MALS.

As to B1, the Kd is around 50 nM in data set [1], around 100 nM in data set [2], around 200 nM in data set [3] and around 100 nM in data set [4]. For the same molecule, the binding result in data set [5] is reported as “no binding”.

As for B2, the binding result in data set [6] is “binds”.

B3: the binding result in data set [7], in data set [6] and in data set [8] was “binds” each time.

For the origin of these results see PMC4306524 (Molecular Cell, 2015).
